Here are results for three sequences from publication PMC12724383.

What all share (conditions): 50 mM HEPES, 150 mM NaCl, 10% glycerol (pH not given for the reactions; protein storage buffer pH 7.5), room temperature, 15 min (EMSA) or 40 min …
For orientation: Mobility shift assays separate free from complexed probe on a gel.

Data set [1] deals with T1, DbuR (Pseudomonas putida), ORF:fe707e5d.
T1 sequence: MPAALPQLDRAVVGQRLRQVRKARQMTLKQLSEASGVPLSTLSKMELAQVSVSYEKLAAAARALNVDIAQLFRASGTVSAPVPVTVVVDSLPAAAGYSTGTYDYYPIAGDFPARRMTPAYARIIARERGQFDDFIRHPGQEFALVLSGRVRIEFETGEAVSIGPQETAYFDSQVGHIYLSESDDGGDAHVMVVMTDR
Put plainly: DNase I footprinting.

Data set [2] shares this test system. Put plainly: EMSA.
The test system is the same in data set [3]. Put plainly: competition EMSA.

As for “TCAGGGATCTCGGCATGCGGCGGTGGTCGGGCATCTTACCTTGGACCCTTGCGCATTTCTAAATTCTCATATATTAGAATTCTCATAAATGATAATTGCCTGGCAGGAGCGTGCATGACCCCGACCTACGACA (double strand) [Pdbu 133 bp, 5'-FAM/5'-HEX]”, the binding entry in data set [1] was “binds”. “TCAGGGATCTCGGCATGCGGCGGTGGTCGGGCATCTTACCTTGGACCCTTGCGCATTTCTAAATTCTCATATATTAGAATTCTCATAAATGATAATTGCCTGGCAGGAGCGTGCATGACCCCGACCTACGACA (double strand) [Pdbu 133 bp, 5'-FAM]”: the binding entry in data set [2] is given as “binds”.

Take “TCAGGGATCTCGGCATGCGGCGGTGGTCGGGCATCTTACCTTGGACCCTTGCGCATTTCTAAATTCTCATATATTAGAATTCTCATAAATGATAATTGCCTGGCAGGAGCGTGCATGACCCCGACCTACGACA (double strand) [Pdbu 133 bp, unlabeled]”: in data set [3], the binding result was “binds”.
